# Source: PMC5063618 (Molecular Biology of the Cell, 2016)
# Where two headings read alike, the source gives them in different places.
# B1: human Drp1 isoform 000 (dynamin-related protein-1), wild type (enzyme, UniProt O00429-4 1-699, looked up)
# chain: MEALIPVINKLQDVFNTVGADIIQLPQIVVVGTQSSGKSSVLESLVGRDLLPRGTGIVTRRPLILQLVHVSQEDKRKTTGEENGVEAEEWGKFLHTKNKLYTDFDEIRQEIENETERISGNNKGVSPEPIHLKIFSPNVVNLTLVDLPGMTKVPVGDQPKDIELQIRELILRFISNPNSIILAVTAANTDMATSEALKISREVDPDGRRTLAVITKLDLMDAGTDAMDVLMGRVIPVKLGIIGVVNRSQLDINNKKSVTDSIRDEYAFLQKKYPSLANRNGTKYLARTLNRLLMHHIRDCLPELKTRINVLAAQYQSLLNSYGEPVDDKSATLLQLITKFATEYCNTIEGTAKYIETSELCGGARICYIFHETFGRTLESVDPLGGLNTIDILTAIRNATGPRPALFVPEVSFELLVKRQIKRLEEPSLRCVELVHEEMQRIIQHCSNYSTQELLRFPKLHDAIVEVVTCLLRKRLPVTNEMVHNLVAIELAYINTKHPDFADACGLMNNNIEEQRRNRLARELPSAVSRDKVASGGGGVGDGVQEPTTGNWRGMLKTSKAEELLAEEKSKPIPIMPASPQKGHAVNLLDVPVPVARKLSAREQRDCEVIERLIKSYFLIVRKNIQDSVPKAVMHFLVNHVKDTLQSELVGQLYKSSLLDDLLTESEDMAQRRKEAADMLKALQGASQIIAEIRETHLW
# B2: GFP-Drp1 (human Drp1 isoform 000 with N-terminal GFP A206K) (enzyme)
# chain: MEALIPVINKLQDVFNTVGADIIQLPQIVVVGTQSSGKSSVLESLVGRDLLPRGTGIVTRRPLILQLVHVSQEDKRKTTGEENGVEAEEWGKFLHTKNKLYTDFDEIRQEIENETERISGNNKGVSPEPIHLKIFSPNVVNLTLVDLPGMTKVPVGDQPKDIELQIRELILRFISNPNSIILAVTAANTDMATSEALKISREVDPDGRRTLAVITKLDLMDAGTDAMDVLMGRVIPVKLGIIGVVNRSQLDINNKKSVTDSIRDEYAFLQKKYPSLANRNGTKYLARTLNRLLMHHIRDCLPELKTRINVLAAQYQSLLNSYGEPVDDKSATLLQLITKFATEYCNTIEGTAKYIETSELCGGARICYIFHETFGRTLESVDPLGGLNTIDILTAIRNATGPRPALFVPEVSFELLVKRQIKRLEEPSLRCVELVHEEMQRIIQHCSNYSTQELLRFPKLHDAIVEVVTCLLRKRLPVTNEMVHNLVAIELAYINTKHPDFADACGLMNNNIEEQRRNRLARELPSAVSRDKVASGGGGVGDGVQEPTTGNWRGMLKTSKAEELLAEEKSKPIPIMPASPQKGHAVNLLDVPVPVARKLSAREQRDCEVIERLIKSYFLIVRKNIQDSVPKAVMHFLVNHVKDTLQSELVGQLYKSSLLDDLLTESEDMAQRRKEAADMLKALQGASQIIAEIRETHLW
# What was measured:
# [1] = target: T1, rabbit skeletal muscle actin, as filaments (rabbit, UniProt P68135 1-377); assay: co-sedimentation
# [2] = target: T1, rabbit skeletal muscle actin, as …; assay: co-sedimentation; remark: listed apart in the source
# [3] = target: T1, rabbit skeletal muscle actin, as …; assay: co-sedimentation; remark: listed apart in the source
# [4] = target: T1, rabbit skeletal muscle actin, as …; assay: co-sedimentation; remark: listed apart in the source
# AUC = target: the molecule itself; assay: AUC
# [5] = target: T1, rabbit skeletal muscle actin, as …; assay: co-sedimentation; remark: listed apart in the source
# [6] = target: T1, rabbit skeletal muscle actin, as …; assay: co-sedimentation; remark: listed apart in the source
# [7] = target: T1, rabbit skeletal muscle actin, as …; assay: co-sedimentation; remark: listed apart in the source
# [8] = target: T1, rabbit skeletal muscle actin, as …; assay: TIRF microscopy, fluorescence decay after washout
# [9] = target: T1, rabbit skeletal muscle actin, as …; assay: TIRF microscopy, fluorescence decay after washout; remark: listed apart in the source
# [10] = target: T1, rabbit skeletal muscle actin, as …; assay: TIRF microscopy, fluorescence decay after washout; remark: listed apart in the source
# [11] = target: T1, rabbit skeletal muscle actin, as …; assay: TIRF microscopy, fluorescence decay after washout; remark: listed apart in the source
# [12] = target: T1, rabbit skeletal muscle actin, as …; assay: TIRF microscopy, fluorescence decay after washout; remark: listed apart in the source
# [13] = target: T1, rabbit skeletal muscle actin, as …; assay: TIRF microscopy, fluorescence decay after washout; remark: listed apart in the source
# [14] = target: T1, rabbit skeletal muscle actin, as …; assay: TIRF microscopy, fluorescence decay after washout; remark: listed apart in the source
# [15] = target: T1, rabbit skeletal muscle actin, as …; assay: TIRF microscopy, fluorescence decay after washout; remark: listed apart in the source
# [16] = target: T1, rabbit skeletal muscle actin, as …; assay: TIRF microscopy, fluorescence decay after washout; remark: listed apart in the source
# [17] = target: T1, rabbit skeletal muscle actin, as …; assay: TIRF microscopy, fluorescence decay after washout; remark: listed apart in the source
# [18] = target: T1, rabbit skeletal muscle actin, as …; assay: TIRF microscopy, fluorescence decay after washout; remark: listed apart in the source
# [19] = target: T1, rabbit skeletal muscle actin, as …; assay: TIRF microscopy, fluorescence decay after washout; remark: listed apart in the source
# [20] = target: T1, rabbit skeletal muscle actin, as …; assay: TIRF microscopy, fluorescence decay after washout; remark: listed apart in the source
binder,measurement,setting,value
B1,Kd,[1],1100 nM
same,Kd,[2],2800 nM
same,Kd,[3],800 nM
same,Kd,[4],400 nM
same,stoichiometry N,AUC,4
same,Kd,[5],600 nM
same,Kd,[6],200 nM
same,Kd,[7],500 nM
B2,t1/2 of dissociation,[8],4.1 ± 1.4 s
same,t1/2 of dissociation,[9],40 ± 20.3 s
same,t1/2 of dissociation,[10],115 ± 43.5 s
same,t1/2 of dissociation,[11],5.4 ± 2 s
same,t1/2 of dissociation,[12],84.1 ± 93.6 s
same,t1/2 of dissociation,[13],48.7 ± 20.6 s
same,t1/2 of dissociation,[14],93.1 ± 88 s
same,t1/2 of dissociation,[15],9.9 ± 4.4 s
same,t1/2 of dissociation,[16],9.8 s
same,t1/2 of dissociation,[17],26.9 ± 20.6 s
same,t1/2 of dissociation,[18],8.1 ± 4.3 s
same,t1/2 of dissociation,[19],93.2 ± 94.5 s
same,t1/2 of dissociation,[20],16.5 ± 2.5 s
